We go through 5 molecules from PMC5055493, “The PilZ domain of MrkH represents a novel DNA binding motif” (Protein & Cell, 2016).

For orientation: Kd means the concentration at which binding is half-saturated.

Data set [1] concerns the target T1, MrkH (tag removed) (Klebsiella pneumoniae) (UniProt G3FT00).
T1 sequence: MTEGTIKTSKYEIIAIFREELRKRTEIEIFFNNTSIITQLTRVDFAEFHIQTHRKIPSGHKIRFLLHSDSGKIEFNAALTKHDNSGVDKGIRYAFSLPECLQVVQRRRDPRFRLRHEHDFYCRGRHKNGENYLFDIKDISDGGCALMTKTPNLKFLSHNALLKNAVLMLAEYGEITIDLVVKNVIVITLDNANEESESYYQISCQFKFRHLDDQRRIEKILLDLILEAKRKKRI
Briefly: fluorescence polarization. The conditions noted are these: EMSA: 50 mM Tris pH 8.0, 100 mM NaCl, 5 mM MgCl2, 20 ul, 100 min on ice; FP: 10 nM FAM-DNA, 25 C, buffer not fully given. Fig. 2G Kd values (High, 10.3, High …). In general terms: Fluorescence polarisation rises when a labelled molecule tumbles more slowly, as on binding a larger partner.

The target in data set [2] is T2, MBP-MrkH (Klebsiella pneumoniae) (UniProt G3FT00).
T2 sequence: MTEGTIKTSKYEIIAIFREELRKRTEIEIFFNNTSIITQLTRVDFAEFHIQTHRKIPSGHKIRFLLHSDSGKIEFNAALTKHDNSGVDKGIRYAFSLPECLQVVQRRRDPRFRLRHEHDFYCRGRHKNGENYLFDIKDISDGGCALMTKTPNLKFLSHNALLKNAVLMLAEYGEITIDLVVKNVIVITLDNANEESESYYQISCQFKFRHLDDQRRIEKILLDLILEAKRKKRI
In words: EMSA. The conditions noted are these: EMSA: 50 mM Tris pH 8.0, 100 mM NaCl, 5 mM MgCl2, 20 ul, 100 min on ice; FP: 10 nM FAM-DNA, 25 C, buffer not fully given. Fig. 2G Kd values (High, 10.3, High …). On the technique in general: Mobility shift assays separate free from complexed probe on a gel.

Data set [3] has as its target T3, MBP-MrkH-PilZ domain (Klebsiella pneumoniae) (UniProt G3FT00).
T3 sequence: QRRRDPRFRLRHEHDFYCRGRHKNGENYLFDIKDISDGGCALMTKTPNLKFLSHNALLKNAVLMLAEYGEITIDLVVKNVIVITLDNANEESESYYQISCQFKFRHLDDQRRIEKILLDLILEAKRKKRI
Briefly: EMSA. As to conditions: EMSA: 50 mM Tris pH 8.0, 100 mM NaCl, 5 mM MgCl2, 20 ul, 100 min on ice; FP: 10 nM FAM-DNA, 25 C, buffer not fully given. Fig. 2G Kd values (High, 10.3, High …).

In a further data set the target is T4, MrkH (Klebsiella pneumoniae, UniProt G3FT00).
T4 construct: full-length MrkH, YcgR-N plus PilZ domains; monomer; recombinant
In words: ITC. The format is binding.

For a further data set, the target named is T5, MrkH^105-end (Klebsiella pneumoniae, UniProt G3FT00).
T5 construct: PilZ domain with interdomain linker, residues 105-end
In words: ITC. The format is binding. An excerpt:
ITC on MrkH^105-end | MrkH^105-end also binds to c-di-GMP efficiently

Data set [4] addresses T6, MrkH (tag removed) (Klebsiella pneumoniae, UniProt G3FT00 1-234). In words: fluorescence polarization; EMSA: 50 mM Tris pH 8.0, 100 mM NaCl, 5 mM MgCl2, 20 ul, 100 min on ice; FP: 10 nM FAM-DNA, 25 C, buffer not fully given. Fig. 2G Kd values (High, 10.3, High, 7.5, 24.3, 10.6, 12.7, High) cannot be assigned to mutants. PilZ mutants of Fig. S3B (all lose mrkA binding in EMSA) are not individually named in the material. The conditions noted are these: protein: recombinant; tags: none (tag removed for FP); label: 5'-FAM; blunt.

For data set [5], the target named is T6, MrkH (tag removed). Briefly: fluorescence polarization; no c-di-GMP; EMSA: 50 mM Tris pH 8.0, 100 mM NaCl, 5 mM MgCl2, 20 ul, 100 min on ice; FP: 10 nM FAM-DNA, 25 C, buffer not fully given. Fig. 2G Kd values (High, 10.3, High, 7.5, 24.3, 10.6, 12.7, High) cannot be assigned to mutants. PilZ mutants of Fig. S3B (all lose mrkA binding in EMSA) are not individually named in the material. As to conditions: protein: recombinant; tags: none (tag removed for FP); label: 5'-FAM; blunt.

A further data set addresses MrkH K154A (Klebsiella pneumoniae, UniProt G3FT00 1-234, K154A). Briefly: fluorescence polarization; little effect of mutation; EMSA: 50 mM Tris pH 8.0, 100 mM NaCl, 5 mM MgCl2, 20 ul, 100 min on ice; FP: 10 nM FAM-DNA, 25 C, buffer not fully given. Fig. 2G Kd values (High, 10.3, High, 7.5, 24.3, 10.6, 12.7, High) cannot be assigned to mutants. PilZ mutants of Fig. S3B (all lose mrkA binding in EMSA) are not individually named in the material. The conditions noted are these: protein: recombinant; tags: none; label: 5'-FAM; blunt.

The target of another data set is MrkH K163A (Klebsiella pneumoniae, UniProt G3FT00 1-234, K163A). The description is as above. As to conditions: protein: recombinant; tags: none; label: 5'-FAM; blunt.
A further data set concerns the target MrkH K207A (Klebsiella pneumoniae, UniProt G3FT00 1-234, K207A). The data set is described as above. As to conditions: protein: recombinant; tags: none; label: 5'-FAM; blunt.
A further data set deals with MrkH K89A (Klebsiella pneumoniae, UniProt G3FT00 1-234, K89A). The description is as above. As to conditions: protein: recombinant; tags: none; label: 5'-FAM; blunt.

Regarding “GCTGCGCTGTAAACAACCACCCTCGCGTTTTCATCTATCAATGGCTGTTTATTAATAGTCGATGGTTATCTGTTATATAACTTAATGAAACGTGAACAAATGTATATTTGTCGGCGAATAAATAGCATTCTTTGACGCCGATAGCACCAGCGAACTTATATTTTTAGGTTCGTTACCTGACGCCTTAAATATTGCGGCTCCCGGTCAGTCGAAGATTCTATTAGCAGTGGCATAAATCAGCATCGCCTGATGTTTCTGGTTCTATGCGAATTCACAGTGTGCT (double strand) [PmrkA -117 to +166 (FAM)]”, the equilibrium dissociation constant (Kd) in data set [1] stood at 3.07 µM.
For “ACTTAAGTTTTTATCCTTCGACCGGTCTCCAGCTTGGAGGCCGTTGTCGTTTTTGTCATGACCAAAATTCGAAACTCTTGATTACAGGAAATACAATATCAAATTCCAAGTTTATACATATCAATCTGGCTGCAAAGATAGTCAATAACATCAAACGCTCATAAAAACATCTGATTAACCCAATCAGAATGTTGCTATTGCTATAAGAAAAATCAAACGCCTCACGACAACTATTTACAAGGGATGCAT (double strand) [mrkHI promoter 250 bp]”, the binding entry in [2] and in [3] was “binds” in each case.
On to `Nc1nc2c(ncn2[C@@H]2O[C@@H]3CO[P@](=O)(O)O[C@H]4[C@@H](O)[C@H](n5cnc6c(=O)[nH]c(N)nc65)O[C@@H]4CO[P@](=O)(O)O[C@H]3[C@H]2O)c(=O)[nH]1` [c-di-GMP], for which the results for the Kd on MrkH and on MrkH^105-end were about 0.24 µM and 0.45 ± 0.1 µM, respectively.

B1: 80 bp random sequence (FAM) (dsDNA)
DNA 1: ATAAATAGCATTCTTTGACGCCGATAGCACCAGCGAACTTATATTTTTAGGTTCGTTACCTGACGCCTTAAATATTGCGG
DNA 2: CCGCAATATTTAAGGCGTCAGGTAACGAACCTAAAAATATAAGTTCGCTGGTGCTATCGGCGTCAAAGAATGCTATTTAT
Consider B1, for which, in the data set with MrkH (tag removed) [4], the Kd stood at 7.45 ± 2.81 µM.

B2: PmrkA -117 to -37 (FAM) (dsDNA)
DNA 1: GCTGCGCTGTAAACAACCACCCTCGCGTTTTCATCTATCAATGGCTGTTTATTAATAGTCGATGGTTATCTGTTATATAA
DNA 2: TTATATAACAGATAACCATCGACTATTAATAAACAGCCATTGATAGATGAAAACGCGAGGGTGGTTGTTTACAGCGCAGC
Turning to B2, in the data set with MrkH (tag removed) [5], the Kd worked out at 8.24 ± 2.23 µM. Besides, the binding result in the data set with MrkH K154A, in the data set with MrkH K163A, with MrkH K207A and with MrkH K89A was “binds” each time.
